This is an account of results in article PMC8950404, “Signal Sequence-Dependent Orientation of Signal Peptide Fragments to Exosomes” (International Journal of Molecular Sciences, 2022).

The assay concerns the target T1, recombinant human calmodulin (CALM) 1/2/3 (human, UniProt P0DP23 1-149).
T1 construct: human calmodulin, printed as calmodulin (CALM) 1/2/3; also called His-tagged CALM; source: bought: Abcam; not shown: His tag, N-terminal, kept
As to the kind of experiment: pull-down; hAPP SP (9–17) 500 nM mixed with N-terminally His-tagged CALM 1 μg/mL in xTractor buffer, with or without CaCl2 500 μM, overnight at 4 °C; CALM separated on a Capturem His-Tagged Purification Miniprep; bound peptides read by MALDI-TOF MS/MS. The following applies: both partners purified.

B1: C-terminal fragment of APP SP (LAAWTARA) (peptide)
peptide: LAAWTARA
notes: stretch of the signal peptide of human amyloid precursor protein (APP), one residue shorter than hAPP SP (9–17); also called exosomal SP fragment
As for B1, the binding result was “binds”.

B2: hAPP SP (9–17) (peptide)
peptide: LLAAWTARA
notes: residues 9-17 of the signal peptide of human amyloid precursor protein (APP); also called C-terminal fragment of APP SP; source: synthetic peptide, bought: Eurofins Scientific
On to B2, for which the binding result is recorded as “binds”.
